Reference: patent publication US20230250154A1 (CYTONICS, published 2023)
Substitutions are numbered along the chain they refer to. Names may count otherwise. Values belong to the binder of their own block, whether it stands above or below them.

Legend:
Test in all cases: cell-based or functional assay
Cathepsin G = biological target: T1, Cathepsin G (UniProt P08311 21-244)
T1 sequence (looked up): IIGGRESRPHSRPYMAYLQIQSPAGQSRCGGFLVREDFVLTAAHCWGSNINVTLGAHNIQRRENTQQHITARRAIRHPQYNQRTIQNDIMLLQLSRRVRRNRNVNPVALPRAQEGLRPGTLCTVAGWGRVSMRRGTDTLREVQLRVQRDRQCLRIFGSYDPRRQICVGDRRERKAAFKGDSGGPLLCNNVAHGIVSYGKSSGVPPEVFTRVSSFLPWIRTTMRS

MMP13 = MMP13 (human, UniProt P45452 104-471, limits assumed)
MMP9 = MMP9 (human, UniProt P14780 107-707, limits assumed)
MMP9, sequence (P14780 107-707 limits assumed): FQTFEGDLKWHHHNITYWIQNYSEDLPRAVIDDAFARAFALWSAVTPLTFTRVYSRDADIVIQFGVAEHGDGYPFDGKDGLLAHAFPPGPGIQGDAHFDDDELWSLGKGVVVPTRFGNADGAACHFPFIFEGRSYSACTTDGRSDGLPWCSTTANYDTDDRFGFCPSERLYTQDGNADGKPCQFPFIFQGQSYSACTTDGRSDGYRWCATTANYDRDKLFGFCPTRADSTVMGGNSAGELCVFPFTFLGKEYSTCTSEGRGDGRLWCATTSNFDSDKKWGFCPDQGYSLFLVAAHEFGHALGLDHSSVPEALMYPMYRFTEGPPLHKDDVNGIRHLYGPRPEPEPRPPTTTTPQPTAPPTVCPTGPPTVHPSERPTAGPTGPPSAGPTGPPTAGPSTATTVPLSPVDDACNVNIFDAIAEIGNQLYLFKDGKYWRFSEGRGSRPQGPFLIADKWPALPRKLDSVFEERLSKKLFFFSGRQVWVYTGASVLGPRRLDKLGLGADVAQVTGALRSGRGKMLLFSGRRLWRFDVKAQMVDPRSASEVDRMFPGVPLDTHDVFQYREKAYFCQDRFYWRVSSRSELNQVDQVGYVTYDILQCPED

ADAMTS5 = biological target: T2, ADAMTS5 (human, UniProt Q9UNA0 262-622, limits assumed)
T2 sequence (looked up): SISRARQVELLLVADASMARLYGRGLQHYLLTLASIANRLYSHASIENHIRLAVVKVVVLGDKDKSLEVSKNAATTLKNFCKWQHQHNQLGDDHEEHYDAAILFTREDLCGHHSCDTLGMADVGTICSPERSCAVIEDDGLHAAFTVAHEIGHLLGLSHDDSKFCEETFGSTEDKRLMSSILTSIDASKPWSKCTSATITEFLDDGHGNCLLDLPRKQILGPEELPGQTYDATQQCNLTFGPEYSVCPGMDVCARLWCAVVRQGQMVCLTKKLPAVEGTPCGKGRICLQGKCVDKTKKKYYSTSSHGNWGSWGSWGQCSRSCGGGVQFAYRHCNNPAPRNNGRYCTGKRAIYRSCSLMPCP

MMP1 = biological target: T3, MMP1 (human, UniProt P03956 100-469, limits assumed)
T3 sequence (looked up): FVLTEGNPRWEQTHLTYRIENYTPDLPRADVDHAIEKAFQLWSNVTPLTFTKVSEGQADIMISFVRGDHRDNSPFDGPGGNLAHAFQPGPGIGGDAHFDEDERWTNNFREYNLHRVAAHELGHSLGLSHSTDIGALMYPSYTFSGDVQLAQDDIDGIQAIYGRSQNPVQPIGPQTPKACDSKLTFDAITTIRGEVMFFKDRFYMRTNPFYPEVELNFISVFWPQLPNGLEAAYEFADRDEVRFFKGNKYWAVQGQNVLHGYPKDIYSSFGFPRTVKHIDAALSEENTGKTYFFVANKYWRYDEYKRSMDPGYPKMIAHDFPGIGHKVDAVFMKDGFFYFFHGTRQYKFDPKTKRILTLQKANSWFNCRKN

MMP7 = biological target: T4, MMP7 (UniProt P09237 95-267, limits assumed)
T4 sequence (looked up): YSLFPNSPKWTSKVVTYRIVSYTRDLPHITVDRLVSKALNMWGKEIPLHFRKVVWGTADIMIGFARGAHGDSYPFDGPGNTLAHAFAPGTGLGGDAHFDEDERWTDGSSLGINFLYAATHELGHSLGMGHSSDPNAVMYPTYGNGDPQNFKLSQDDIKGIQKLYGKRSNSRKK

Elastase = biological target: Elastase
MMP8 = MMP8 (human, UniProt P22894 101-467, limits assumed)
MMP8, sequence (P22894 101-467 limits assumed): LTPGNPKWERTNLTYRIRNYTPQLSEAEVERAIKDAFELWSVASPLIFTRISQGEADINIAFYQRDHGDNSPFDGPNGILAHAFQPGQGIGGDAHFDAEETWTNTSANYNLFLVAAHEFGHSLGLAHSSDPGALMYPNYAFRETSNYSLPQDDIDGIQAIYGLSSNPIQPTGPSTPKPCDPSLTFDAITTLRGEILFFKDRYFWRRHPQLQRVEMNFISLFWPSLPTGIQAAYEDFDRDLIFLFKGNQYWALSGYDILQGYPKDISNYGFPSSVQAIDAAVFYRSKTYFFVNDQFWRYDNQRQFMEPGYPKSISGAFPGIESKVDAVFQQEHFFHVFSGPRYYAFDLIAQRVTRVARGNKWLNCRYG

ADAMTS4 = biological target: T5, ADAMTS4 (human, UniProt O75173 213-685, limits assumed)
T5 sequence (looked up): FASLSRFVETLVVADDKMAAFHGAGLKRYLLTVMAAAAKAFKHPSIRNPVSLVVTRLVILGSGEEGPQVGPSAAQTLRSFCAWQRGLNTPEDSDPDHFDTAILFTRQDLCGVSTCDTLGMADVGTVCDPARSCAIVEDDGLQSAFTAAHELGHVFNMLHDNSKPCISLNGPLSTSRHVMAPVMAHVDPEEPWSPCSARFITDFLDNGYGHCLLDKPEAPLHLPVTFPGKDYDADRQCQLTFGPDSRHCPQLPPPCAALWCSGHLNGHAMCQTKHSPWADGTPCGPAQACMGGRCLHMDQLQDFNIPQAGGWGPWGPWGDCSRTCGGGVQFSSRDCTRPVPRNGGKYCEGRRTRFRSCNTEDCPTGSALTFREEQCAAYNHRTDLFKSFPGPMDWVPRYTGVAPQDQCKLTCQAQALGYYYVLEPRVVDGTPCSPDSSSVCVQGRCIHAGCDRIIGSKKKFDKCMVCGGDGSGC

MMP3 = MMP3 (human, UniProt P08254 100-477, limits assumed)
MMP3, sequence (P08254 100-477 limits assumed): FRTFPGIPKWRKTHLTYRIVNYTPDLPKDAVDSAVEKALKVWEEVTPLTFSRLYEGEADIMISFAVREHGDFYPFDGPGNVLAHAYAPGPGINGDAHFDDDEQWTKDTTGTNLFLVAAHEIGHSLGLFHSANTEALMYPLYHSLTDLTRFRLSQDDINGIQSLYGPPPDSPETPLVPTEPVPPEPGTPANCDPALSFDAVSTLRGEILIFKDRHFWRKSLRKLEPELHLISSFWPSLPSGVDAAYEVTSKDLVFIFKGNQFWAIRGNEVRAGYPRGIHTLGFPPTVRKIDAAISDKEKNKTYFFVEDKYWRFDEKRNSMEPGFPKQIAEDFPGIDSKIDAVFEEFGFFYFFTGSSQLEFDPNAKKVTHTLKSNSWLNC

MMP2 = biological target: T6, MMP2 (human, UniProt P08253 110-660, limits assumed)
T6 sequence (looked up): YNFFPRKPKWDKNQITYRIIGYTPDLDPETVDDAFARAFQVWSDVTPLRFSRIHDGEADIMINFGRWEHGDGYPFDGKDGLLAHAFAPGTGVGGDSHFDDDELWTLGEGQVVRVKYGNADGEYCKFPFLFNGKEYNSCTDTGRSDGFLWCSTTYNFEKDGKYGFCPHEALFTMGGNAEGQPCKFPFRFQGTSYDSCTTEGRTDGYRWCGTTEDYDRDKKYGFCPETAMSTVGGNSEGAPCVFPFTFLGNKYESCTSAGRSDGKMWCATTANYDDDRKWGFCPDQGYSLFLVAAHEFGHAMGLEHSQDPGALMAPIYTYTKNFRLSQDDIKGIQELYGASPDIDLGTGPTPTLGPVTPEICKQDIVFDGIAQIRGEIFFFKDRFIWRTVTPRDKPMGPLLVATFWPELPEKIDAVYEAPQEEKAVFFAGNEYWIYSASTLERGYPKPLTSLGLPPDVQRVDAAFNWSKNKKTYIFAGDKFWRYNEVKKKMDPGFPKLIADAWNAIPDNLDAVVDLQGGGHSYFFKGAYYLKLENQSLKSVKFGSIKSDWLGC

Protease Inhibition (% of WT) (Cathepsin G): 157 % of WT
Protease Inhibition (% of WT) (MMP13): 145 % of WT
Protease Inhibition (% of WT) (MMP9): 39 % of WT
Protease Inhibition (% of WT) (ADAMTS5): 79 % of WT
Protease Inhibition (% of WT) (MMP1): 117 % of WT
Protease Inhibition (% of WT) (MMP7): 147 % of WT
Protease Inhibition (% of WT) (Elastase): 131 % of WT
Protease Inhibition (% of WT) (MMP8): 81 % of WT
Protease Inhibition (% of WT) (ADAMTS4): 222 % of WT
Protease Inhibition (% of WT) (MMP3): 127 % of WT
Protease Inhibition (% of WT) (MMP2): 58 % of WT
B1: Variant A2M, bait region SEQ ID NO 7 (other)
chain: SVSGKPQYMVLVPSLLHTETTEKGCVLLSYLNETVTVSASLESVRGNRSLFTDLEAENDVLHCVAFAVPKSSSNEEVMFLTVQVKGPTQEFKKRTTVMVKNEDSLVFVQTDKSIYKPGQTVKFRVVSMDENFHPLNELIPLVYIQDPKGNRIAQWQSFQLEGGLKQFSFPLSSEPFQGSYKVVVQKKSGGRTEHPFTVEEFVLPKFEVQVTVPKIITILEEEMNVSVCGLYTYGKPVPGHVTVSICRKYSDASDCHGEDSQAFCEKFSGQLNSHGCFYQQVKTKVFQLKRKEYEMKLHTEAQIQEEGTVVELTGRQSSEITRTITKLSFVKVDSHFRQGIPFFGQVRLVDGKGVPIPNKVIFIRGNEANYYSNATTDEHGLVQFSINTTNVMGTSLTVRVNYKDRSPCYGYQWVSEEHEEAHHTAYLVFSPSKSFVHLEPMSHELPCGHTQTVQAHYILNGGTLLGLKKLSFYYLIMAKGGIVRTGTHGLLVKQEDMKGHFSISIPVKSDIAPVARLLIYAVLPTGDVIGDSAKYDVENCLANKVDLSFSPSQSLPASHAHLRVTAAPQSVCALRAVDQSVLLMKPDAELSASSVYNLLPEKDLTGFPGPLNDQDDEDCINRHNVYINGITYTPVSSTNEKDMYSFLEDMGLKAFTNSKIRKPKMCPQLEHGPEGEGEGEGIPENFFGVRYSEDLVVQISELEGRGSVEEPHTKLRKYFPETWIWDLVVVNSAGVAEVGVTVPDTITEWKAGAFCLSEDAGLGISSTASLRAFQPFFVELTMPYSVIRGEAFTLKATVLNYLPKCIRVSVQLEASPAFLAVPVEKEQAPHCICANGRQTVSWAVTPKSLGNVNFTVSAEALESQELCGTEVPSVPEHGRKDTVIKPLLVEPEGLEKETTFNSLLCPSGGEVSEELSLKLPPNVVEESARASVSVLGDILGSAMQNTQNLLQMPYGCGEQNMVLFAPNIYVLDYLNETQQLTPEIKSKAIGYLNTGYQRQLNYKHYDGSYSTFGERYGRNQGNTWLTAFVLKTFAQARAYIFIDEAHITQALIWLSQRQKDNGCFRSSGSLLNNAIKGGVEDEVTLSAYITIALLEIPLTVTHPVVRNALFCLESAWKTAQEGDHGSHVYTKALLAYAFALAGNQDKRKEVLKSLNEEAVKKDNSVHWERPQKPKAPVGHFYEPQAPSAEVEMTSYVLLAYLTAQPAPTSEDLTSATNIVKWITKQQNAQGGFSSTQDTVVALHALSKYGAATFTRTGKAAQVTIQSSGTFSSKFQVDNNNRLLLQQVSLPELPGEYSMKVTGEGCVYLQTSLKYNILPEKEEFPFALGVQTLPQTCDEPKAHTSFQISLSVSYTGSRSASNMAIVDVKMVSGFIPLKPTVKMLERSNHVSRTEVSSNHVLIYLDKVSNQTLSLFFTVLQDVPVRDLKPAIVKVYDYYETDEFAIAEYNAPCSKDLGNADYKDDDDKGASHHHHHH

Protease Inhibition (% of WT) (Cathepsin G): 12 % of WT
Protease Inhibition (% of WT) (MMP13): 56 % of WT
Protease Inhibition (% of WT) (MMP9): 9 % of WT
Protease Inhibition (% of WT) (ADAMTS5): 97 % of WT
Protease Inhibition (% of WT) (MMP1): 48 % of WT
Protease Inhibition (% of WT) (MMP7): 64 % of WT
Protease Inhibition (% of WT) (Elastase): 39 % of WT
Protease Inhibition (% of WT) (MMP8): 28 % of WT
Protease Inhibition (% of WT) (ADAMTS4): 120 % of WT
Protease Inhibition (% of WT) (MMP3): < 100 % of WT
Protease Inhibition (% of WT) (MMP2): 33 % of WT
B2: Variant A2M, bait region SEQ ID NO 8 (other)
chain: B1 chain with R690L

Protease Inhibition (% of WT) (Cathepsin G): 117 % of WT
Protease Inhibition (% of WT) (MMP13): 100 % of WT
Protease Inhibition (% of WT) (MMP9): 41 % of WT
Protease Inhibition (% of WT) (ADAMTS5): 246 % of WT
Protease Inhibition (% of WT) (MMP1): 119 % of WT
Protease Inhibition (% of WT) (MMP7): 170 % of WT
Protease Inhibition (% of WT) (Elastase): 124 % of WT
Protease Inhibition (% of WT) (MMP8): 64 % of WT
Protease Inhibition (% of WT) (ADAMTS4): 201 % of WT
Protease Inhibition (% of WT) (MMP3): 122 % of WT
Protease Inhibition (% of WT) (MMP2): 37 % of WT
B3: Variant A2M, bait region SEQ ID NO 20 (other)
chain: SVSGKPQYMVLVPSLLHTETTEKGCVLLSYLNETVTVSASLESVRGNRSLFTDLEAENDVLHCVAFAVPKSSSNEEVMFLTVQVKGPTQEFKKRTTVMVKNEDSLVFVQTDKSIYKPGQTVKFRVVSMDENFHPLNELIPLVYIQDPKGNRIAQWQSFQLEGGLKQFSFPLSSEPFQGSYKVVVQKKSGGRTEHPFTVEEFVLPKFEVQVTVPKIITILEEEMNVSVCGLYTYGKPVPGHVTVSICRKYSDASDCHGEDSQAFCEKFSGQLNSHGCFYQQVKTKVFQLKRKEYEMKLHTEAQIQEEGTVVELTGRQSSEITRTITKLSFVKVDSHFRQGIPFFGQVRLVDGKGVPIPNKVIFIRGNEANYYSNATTDEHGLVQFSINTTNVMGTSLTVRVNYKDRSPCYGYQWVSEEHEEAHHTAYLVFSPSKSFVHLEPMSHELPCGHTQTVQAHYILNGGTLLGLKKLSFYYLIMAKGGIVRTGTHGLLVKQEDMKGHFSISIPVKSDIAPVARLLIYAVLPTGDVIGDSAKYDVENCLANKVDLSFSPSQSLPASHAHLRVTAAPQSVCALRAVDQSVLLMKPDAELSASSVYNLLPEKDLTGFPGPLNDQDDEDCINRHNVYINGITYTPVSSTNEKDMYSFLEDMGLKAFTNSKIRKPKMCPQLEHGPEFRGVTEGEGEGIPENFYGVSEDLVVQISELEGRGSVEEPHTKLRKYFPETWIWDLVVVNSAGVAEVGVTVPDTITEWKAGAFCLSEDAGLGISSTASLRAFQPFFVELTMPYSVIRGEAFTLKATVLNYLPKCIRVSVQLEASPAFLAVPVEKEQAPHCICANGRQTVSWAVTPKSLGNVNFTVSAEALESQELCGTEVPSVPEHGRKDTVIKPLLVEPEGLEKETTFNSLLCPSGGEVSEELSLKLPPNVVEESARASVSVLGDILGSAMQNTQNLLQMPYGCGEQNMVLFAPNIYVLDYLNETQQLTPEIKSKAIGYLNTGYQRQLNYKHYDGSYSTFGERYGRNQGNTWLTAFVLKTFAQARAYIFIDEAHITQALIWLSQRQKDNGCFRSSGSLLNNAIKGGVEDEVTLSAYITIALLEIPLTVTHPVVRNALFCLESAWKTAQEGDHGSHVYTKALLAYAFALAGNQDKRKEVLKSLNEEAVKKDNSVHWERPQKPKAPVGHFYEPQAPSAEVEMTSYVLLAYLTAQPAPTSEDLTSATNIVKWITKQQNAQGGFSSTQDTVVALHALSKYGAATFTRTGKAAQVTIQSSGTFSSKFQVDNNNRLLLQQVSLPELPGEYSMKVTGEGCVYLQTSLKYNILPEKEEFPFALGVQTLPQTCDEPKAHTSFQISLSVSYTGSRSASNMAIVDVKMVSGFIPLKPTVKMLERSNHVSRTEVSSNHVLIYLDKVSNQTLSLFFTVLQDVPVRDLKPAIVKVYDYYETDEFAIAEYNAPCSKDLGNADYKDDDDKGASHHHHHH
